From publication PMC5579359, “Sensing of viral and endogenous RNA by ZBP1/DAI induces necroptosis” (The EMBO Journal, 2017)

Biological target: the molecule itself
Assay: non-reducing SDS-PAGE and Western blot

B1: MLKL (natural protein, mouse (endogenous in NIH3T3), UniProt Q9D2Y4 1-472, looked up)
chain: MDKLGQIIKLGQLIYEQCEKMKYCRKQCQRLGNRVHGLLQPLQRLQAQGKKNLPDDITAALGRFDEVLKEANQQIEKFSKKSHIWKFVSVGNDKILFHEVNEKLRDVWEELLLLLQVYHWNTVSDVSQPASWQQEDRQDAEEDGNENMKVILMQLQISVEEINKTLKQCSLKPTQEIPQDLQIKEIPKEHLGPPWTKLKTSKMSTIYRGEYHRSPVTIKVFNNPQAESVGIVRFTFNDEIKTMKKFDSPNILRIFGICIDQTVKPPEFSIVMEYCELGTLRELLDREKDLTMSVRSLLVLRAARGLYRLHHSETLHRNISSSSFLVAGGYQVKLAGFELSKTQNSISRTAKSTKAERSSSTIYVSPERLKNPFCLYDIKAEIYSFGIVLWEIATGKIPFEGCDSKKIRELVAEDKKQEPVGQDCPELLREIINECRAHEPSQRPSVDGRSLSGRERILERLSAVEESTDKKV
notes: also called pseudokinase MLKL; source: endogenous, NIH3T3 cell and primary MEF lysates
- stoichiometry N: 3
